The record followed here is US9278137B2, “Polymeric conjugates of active principles, their process of preparation and their polymeric intermediates” (SANOFI, priority 2010, dated 2016).

For series [1] the following is noted: for In vitro data in rat plasma (release of free cabazitaxel): 37° C., formulation 1 mg/mL; for release profile (in words): comparison of linkers.
A short description of series [2]: Nanoparticle size (hydrodynamic diameter) by dynamic light scattering (DLS). The following applies: nanodispersion 10 mg/mL in WFI.

Like-named read-outs stand apart in the source and are kept apart here.

As for “mPEG2000-PLA10000-Y-succinyl-2′-cabazitaxel [VIII′]”, the “In vitro data in rat plasma (release of free cabazitaxel)” value in series [1] (Time 0 h) is given as 0; in series [1] (Time 1 h) it was 0.84; in series [1] (Time 2 h) it was 1.68; in series [1] (Time 4 h), 3.30; in series [1] (Time 18 h) it was 17.35; in series [1] (Time 24 h) it was 20.16. In addition, the “free cabazitaxel released in 24 h” value in series [1] (rat plasma) was around 17%. In series [1] (rat plasma), the “release profile (in words)” value is listed as “slowest release profile”. Moreover, the “release of succinyl-cabazitaxel from the formulation” value in series [1] (rat plasma, quantified using HPLC) is listed as < 1 % of cabazitaxel present initially in the nanoparticles.

For mPEG-PLA-diglycolyl-cabazitaxel [XI], the “In vitro data in rat plasma (release of free cabazitaxel)” value came out at 2.20 in series [1] (Time 0 h); 5.36 in series [1] (Time 1 h); 8.67 in series [1] (Time 2 h); 14.81 in series [1] (Time 4 h); 49.39 in series [1] (Time 18 h); 55.09 in series [1] (Time 24 h). Besides, the “free cabazitaxel released in 24 h” value in series [1] (rat plasma) is around 47%. Moreover, in series [1] (rat plasma), the “release profile (in words)” value is “relatively rapid release”. Also, in series [2], the “Mean diameter (using DLS)” value stood at 52 nm. Moreover, the “PDI (DLS)” value in series [2] is reported as 0.18.

Turning to mPEG-PLA-glutaryl-cabazitaxel, the “In vitro data in rat plasma (release of free cabazitaxel)” value in series [1] (Time 0 h) is recorded as 0; in series [1] (Time 1 h), 1.31; in series [1] (Time 2 h), 2.30; in series [1] (Time 4 h), 5.29; in series [1] (Time 18 h), 23.51; in series [1] (Time 24 h), 31.72. Besides, the “free cabazitaxel released in 24 h” value in series [1] (rat plasma) was around 27%. The “Mean diameter (using DLS)” value in series [2] is 60 nm. Also, the “PDI (DLS)” value in series [2] is listed as 0.21.

For the substance mPEG-PLA-succinyl-larotaxel [IX], in series [2], the “Mean diameter (using DLS)” value was found to be 48 nm and the “PDI (DLS)” value was 0.17.
